In PMC2897027 (Journal of molecular biology, 2010):
One block for each molecule: values may come before it.

How the values were obtained:
[1] = target: CTD MSK1 construct comprising residues 398-738 (human) (UniProt O75582); assay: SEC
[2] = target: CTD MSK1 construct comprising residues 414-750 (human) (UniProt O75582); assay: SEC
[3] = target: "full length" C-terminal kinase domain of MSK1 (residues 414-802) (human, UniProt O75582 414-802); assay: SPR
Sequence of "full length" C-terminal kinase domain of MSK1 (residues 414-802) (O75582 414-802): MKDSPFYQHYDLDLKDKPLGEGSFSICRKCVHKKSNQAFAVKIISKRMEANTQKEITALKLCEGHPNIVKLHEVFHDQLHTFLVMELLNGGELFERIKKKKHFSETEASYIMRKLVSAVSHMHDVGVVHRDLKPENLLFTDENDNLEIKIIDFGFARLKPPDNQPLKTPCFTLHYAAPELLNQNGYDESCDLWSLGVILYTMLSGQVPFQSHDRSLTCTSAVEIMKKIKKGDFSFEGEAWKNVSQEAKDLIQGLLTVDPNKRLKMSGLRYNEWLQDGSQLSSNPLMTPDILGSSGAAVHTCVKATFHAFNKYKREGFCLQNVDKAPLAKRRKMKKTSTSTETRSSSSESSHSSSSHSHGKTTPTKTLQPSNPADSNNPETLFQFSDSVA

stoichiometry N [1]: 2
Molecule: CTD MSK1 construct comprising residues 398-738 (from UniProt O75582 398-738) (domain or fragment)

stoichiometry N [2]: 2
Molecule: CTD MSK1 construct comprising residues 414-750 (from UniProt O75582 414-750) (domain or fragment)

Kd [3]: 74 ± 6 nM
B1: Full length human ERK1 (enzyme, UniProt P27361 1-379, looked up)
chain: MAAAAAQGGGGGEPRRTEGVGPGVPGEVEMVKGQPFDVGPRYTQLQYIGEGAYGMVSSAYDHVRKTRVAIKKISPFEHQTYCQRTLREIQILLRFRHENVIGIRDILRASTLEAMRDVYIVQDLMETDLYKLLKSQQLSNDHICYFLYQILRGLKYIHSANVLHRDLKPSNLLINTTCDLKICDFGLARIADPEHDHTGFLTEYVATRWYRAPEIMLNSKGYTKSIDIWSVGCILAEMLSNRPIFPGKHYLDQLNHILGILGSPSQEDLNCIINMKARNYLQSLPSKTKVAWAKLFPKSDSKALDLLDRMLTFNPNKRITVEEALAHPYLEQYYDPTDEPVAEEPFTFAMELDDLPKERLKELIFQETARFQPGVLEAP
